Data published in the supplement of paper PMC10126150.
± gives the standard deviation of the averaged measurements.

test system: ATP; test: switch fluorescence ratio, 500 uM ATP over buffer (Cy3 cluster intensity, sum of 5 cycles each) (fold (ratio)); higher = stronger signal-on switching upon ATP binding; sequences stand for … in TCGTCGGCAGCGTCAGATGTGTATAAGAGACAGTTTTTTTTTTTTTTTTTTTTTTTTT…TC; settings: aptamer strand: ATP DNA aptamer (quencher-CACCTGGGGGAGTATTGCGGAGGAAGG + anchor), 100 nM annealed; ATP concentration: 500 uM
In short: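 Between each of five buffer/ATP cycles, the flow-cell was stripped with NaOH and re-annealed. Each cycle imaged Cy3-labelled switching-strand clusters, annealed to 100 nM quencher-labelled ATP aptamer on a modified Illumina MiSeq flow-cell, first in selection buffer and then after 15 min with 500 uM ATP at 22 °C. The fluorescence ratio is summed target-cycle over summed buffer-cycle Cy3 intensity per cluster, averaged per switch-domain sequence, with clusters outside 100-1000 RFU excluded.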
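Note: ATP exposure 15 min at 22 °C before imaging.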

Sequence | switch fluorescence ratio
GCAAAAATGC | 1.03 ± 0.031
AAAGCGGTTG | 0.98 ± 0.012
AAAGAAGGGG | 0.995 ± 0.015
GAGGCATTGC | 1.65 ± 0.24
GAAGGTATGT | 0.96567 ± 1.1e-05
AGTATATTTT | 1.006 ± 0.0046
TTGGACTATA | 1.02 ± 0.043
ACAAGTGCGG | 1.05 ± 0.024
GATTCCGTTG | 1.04 ± 0.016
TTCGTGTATC | 0.999 ± 0.011
CTGCCAGGTT | 1.146 ± 0.0052
ATTAATGGGT | 1.02 ± 0.027
AAAATGGTTG | 1.04 ± 0.032
GCGAACAACT | 1.014 ± 0.0087
TGCCCCGATA | 2.66 ± 2.3
GTGGAAGTGG | 1.02 ± 0.034
GGGATCCATG | 1.01 ± 0.019
TGGGGGAGA | 1.04 ± 0.017
ACCTGGGTGG | 1.03 ± 0.036
CCTTGTATTT | 1.01 ± 0.018
TCTTAGACAT | 0.9646 ± 0.0028
GTCGGAGGGG | 0.982 ± 0.043

Sequence | switch fluorescence ratio
GATGTTTATG | 0.975 ± 0.036
AAAATCAGAG | 0.97 ± 0.024
TTTTGGATTA | 1 ± 0.039
ATTTCGTTGT | 1 ± 0.07
GGTGATACGA | 1.07 ± 0.02
AGGTTTTTCA | 0.983 ± 0.017
GTTGGCTATT | 0.984 ± 0.007
GATTTAAGGG | 0.993 ± 0.018
CCTTTTTGGG | 0.9831 ± 0.0032
CACCCGGGGT | 1.2099 ± 0.00019
TTAGGCCAGG | 1.05 ± 0.017
TTGAATGCCA | 0.99 ± 0.028
GGTGATGTTA | 0.9786 ± 0.0049
GGGTGGTGCT | 0.978 ± 0.021
GGGGGCACTT | 1.008 ± 0.0045
CGTGGGTAGA | 1.06 ± 0.09
CATGGGGCTA | 1.02 ± 0.031
TGTTTTAGGG | 0.993 ± 0.035
GACAAGGGGG | 0.981 ± 0.065
TTCAGGGTTT | 1.5 ± 0.9
TAAAGGGCGT | 0.967 ± 0.021
CGCTCAGTTG | 1.13 ± 0.0039

Sequence | switch fluorescence ratio
AAGTGGGCCT | 0.981 ± 0.038
CGAGGCAGCA | 1.199 ± 0.009
GCTTGGATAA | 1.02 ± 0.032
AGTAAAAAGT | 1.02 ± 0.026
TGAGCTTAGA | 1.02 ± 0.054
TCAAAACGGC | 1.07 ± 0.15
GATTCCATAG | 1.06 ± 0.034
GGTTGGGTTT | 0.989 ± 0.03
TCGGATGCGT | 1.03 ± 0.035
AAGTTGGATG | 0.977 ± 0.019
TTTTGCGCAA | 0.9922 ± 0.0048
GCTAATGTTA | 1.01 ± 0.03
TGAAGACCAT | 1.016 ± 0.0058
TATAAAGGTG | 1.11 ± 0.14
CTCGTTCTAT | 1.002 ± 0.0057
TTATGCTATG | 1.055 ± 0.0034
TTACTAAGGG | 1.04 ± 0.04
TTATAGGAAC | 1.02 ± 0.013
AGAGATGTAG | 0.966 ± 0.023
TTCTCGGTTT | 1.02 ± 0.025
ATGTGAGGGT | 1.017 ± 0.0039
TGAAGCATTG | 1.35 ± 0.38

Sequence | switch fluorescence ratio
AGGGATGTTT | 0.999 ± 0.026
TTTGTGCCTT | 1.1 ± 0.12
CAGAGGAGGT | 0.982 ± 0.017
AGGGGTTTGG | 0.983 ± 0.024
TTCCAGGATT | 1.04 ± 0.089
GGTTGGGTG | 1.03 ± 0.013
TGTGGGCATT | 1.019 ± 0.0053
TCATTAGGGG | 0.994 ± 0.041
AGGGTTCGAC | 1.01 ± 0.039
GTTGGGGCAG | 0.961 ± 0.034
TCATTTTTGC | 0.979 ± 0.052
GTTGATCCGA | 0.971 ± 0.013
CTGGCGAGGG | 1.01 ± 0.026
AGAGAGGGGC | 0.971 ± 0.014
TCTGTTATCG | 0.983 ± 0.043
GATTTTAGAC | 0.995 ± 0.015
ATTGGAGCGT | 0.986 ± 0.0013
CTGTTGGTGG | 0.99 ± 0.017
GCGGGATGTC | 0.972 ± 0.02
